Here are results for four substances from patent US20240240147A1.

This test deals with human B cell antigen CD19 on human B-ALL cells (human) (UniProt P15391). Description: cell-based or functional assay.

“CarP-RFP (control CarP: extracellular αCD19 scFv, CD8 transmembrane domain, RFP, no cytoplasmic signaling domain) (from UniProt P01732 138-206)” came in with a percent of CarP-RFP macrophages (from GMPs expanded in modified SCF/2i) that engulfed GFP-labeled human B-ALL cells within 1 hour of co-culture; control CAR without signaling domain of 0.87% and a percent of macrophages (from mouse SCF/2i GMPs) that phagocytized GFP-labeled human B-ALL cells within 1 hour of co-culture; control CAR without signaling domain of 0.21%.
Substance “CarP^Fc19-RFP (αCD19 scFv, human CD8 hinge/transmembrane, mouse Fcer1g aa19-86, mouse CD19 aa491-535, P2A-RFP) (from UniProt P01732 138-206; P20491 19-86; P25918 491-535)” gave a percent of macrophages (from mouse SCF/2i GMPs) that engulfed GFP-positive human B-ALL cells within 1 hour of co-culture of 5.23%.
“human CarPzFc19-RFP (αCD19 scFv, human CD8 hinge/transmembrane, human CD3ζ aa52-164, human Fcer1g aa45-86, human CD19 aa498-544) (from UniProt P01732 138-206; P20963 52-164; P30273 45-86; P15391 498-544)” returned a percent of macrophages (from GMPs expanded in modified SCF/2i) that engulfed GFP-labeled human B-ALL leukemia cells within 1 hour of co-culture, by flow cytometry of 28.6%.
For “αCD19 CarP^zFc19-RFP (αCD19 scFv, human CD8 hinge/transmembrane, mouse CD3ζ aa52-164, mouse Fcer1g aa45-86, mouse CD19, P2A-RFP) (from UniProt P01732 138-206; P24161 52-164; P20491 45-86; P25918 491-535)”, the percent of macrophages (from mouse SCF/2i GMPs) that engulfed human B-ALL leukemia cells within 1 hour of co-culture, by flow cytometry turned out to be 41.6%.
